We go through 1 molecule from publication PMC7215387, “Comparison of Target Recognition by TRAF1 and TRAF2” (International Journal of Molecular Sciences, 2020).

Holding throughout (assay type): binding
Test [1] deals with T1, TRAF2 (Homo sapiens, UniProt Q12933).
T1 construct: TRAF2 TRAF domain (amino acid residues 305-501); 6xHis (C); made in house; host or cells: E. coli BL21 (DE3)
T1 sequence (Q12933 305-501): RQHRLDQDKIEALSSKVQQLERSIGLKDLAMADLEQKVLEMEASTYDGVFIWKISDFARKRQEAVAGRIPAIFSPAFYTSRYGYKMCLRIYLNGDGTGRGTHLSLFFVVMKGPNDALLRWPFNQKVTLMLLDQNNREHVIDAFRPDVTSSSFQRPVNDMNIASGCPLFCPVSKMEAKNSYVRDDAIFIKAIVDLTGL
Nature of the test: Native-PAGE complex formation with TRAF2. The settings on record: 8% to 25% acrylamide gradient gels, Coomassie; 1 h at 4 °C; TRAF2 TRAF domain (305-501). From the text: (§1) TRADD is a well-known regulator of the TRAF function. The death domain located at the C-terminus of TRADD interacts with death-domain containing receptors and adaptor proteins including TNFR, receptor interacting protein 1 (RIP1) and Fas-associated death domain protein (FADD), while the N-terminal domain of TRADD (TRADD-N) interacts with the TRAF domain of TRAF2 (Figure 2a). Although several indirect interactions between TRAF1 and TRADD have been described, a direct interaction and direct analyses between TRAF1 and TRADD have not been reported. To directly study their interactions and binding properties, which may provide important clues for understanding TRAF-mediated signaling by TRADD, TRAFs and TRADD-N were purified, and initial interaction testing was performed by Native-PAGE. […] Although TRAF1 did interact with TRADD-N, this interaction was not as tight as with TRAF2 (Figure 2b). To further confirm this association, the interaction between the TRAFs and TRADD-N was further tested by size-exclusion chromatography. […]
(§2) The formation of complexes was assayed by native (non-denaturing) PAGE conducted on a PhastSystem (GE Healthcare) with pre-cast 8% to 25% acrylamide gradient gels (GE Healthcare). […] Complex formation was evaluated based on the appearance of newly formed bands or the disappearance of bands that were detected in single control protein bands.

The target of test [2] is T2, TRAF1 (Homo sapiens, UniProt Q13077).
T2 construct: the TRAF1 TRAF domain (amino acid residues 220-416); 6xHis (C); made in house; host or cells: E. coli BL21 (DE3)
T2 sequence (Q13077 220-416): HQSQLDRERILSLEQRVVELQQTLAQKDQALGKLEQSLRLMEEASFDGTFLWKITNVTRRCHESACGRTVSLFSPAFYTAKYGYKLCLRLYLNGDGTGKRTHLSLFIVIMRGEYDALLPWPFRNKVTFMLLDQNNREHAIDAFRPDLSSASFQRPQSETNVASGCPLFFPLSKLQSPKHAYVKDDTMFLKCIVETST
Put plainly: Native-PAGE complex formation with TRAF1. The settings on record: 8% to 25% acrylamide gradient gels, Coomassie; 1 h at 4 °C; TRAF1 TRAF domain (220-416).
Description: as §1, §2

Test [3] has as its target T1, TRAF2. Put plainly: Complex formation assay by gel-filtration (size-exclusion) chromatography with TRAF2. The settings on record: Superdex 200 10/30, 20 mM Tris pH 8.0, 150 mM NaCl; 1 h at 4 °C; peak around 14 mL.
Description: as §1
(§3) Purified TRAF domains and TRADD-N proteins were mixed, incubated at 4 °C for 1 h, and concentrated to 4 to 5 mg/mL using a protein concentration kit (Millipore). […] Complex assembly was evaluated based on the positions of eluted protein peaks monitored at 280 nm followed by SDS-PAGE.
In general terms: In gel filtration, larger molecules generally elute earlier.

Test [4] has as its target T2, TRAF1. Put plainly: Complex formation assay by gel-filtration (size-exclusion) chromatography with TRAF1. The settings on record: Superdex 200 10/30, 20 mM Tris pH 8.0, 150 mM NaCl; 1 h at 4 °C; peak shift approximately 16 mL.
Description: as §1, §3

B1: TRADD-N: N-terminal domain of TRADD (TRADD-N, amino acid residues 1-163) (protein)
chain: MAAGQNGHEEWVGSAYLFVESSLDKVVLSDAYAHPQQKVAVYRALQAALAESGGSPDVLQMLKIHRSDPQLIVQLRFCGRQPCGRFLRAYREGALRAALQRSLAAALAQHSVPLQLELRAGAERLDALLADEERCLSCILAQQPDRLRDEELAELEDALRNLK
modifications: left off: His6 (from the vector pET24a), C-terminal, state not stated
In the case of B1, the “Native-PAGE band change on incubation with TRAF2” value in test [1] was “the TRADD-N band was completely absent, forming a new complex band”. For the same molecule, the “Native-PAGE band change on incubation with TRAF1” value in test [2] is “only a small portion of the TRADD-N band disappeared”. Moreover, the “co-migration with TRAF2 in size-exclusion chromatography / SDS-PAGE” value in test [3] is given as “co-migrated well with TRADD-N at similar intensities”. In test [4], the “co-migration with TRAF1 in size-exclusion chromatography / SDS-PAGE” value is listed as “TRADD-N did not perfectly co-migrate with TRAF1”.
